Assay results: patent US20240392020A1 (JIANGSU HENGRUI PHARMACEUTICALS, published 2024)

T1: CEA on MKN45 cells (UniProt P06731 35-685)
T1 construct: whole, on cells
T1 sequence (looked up): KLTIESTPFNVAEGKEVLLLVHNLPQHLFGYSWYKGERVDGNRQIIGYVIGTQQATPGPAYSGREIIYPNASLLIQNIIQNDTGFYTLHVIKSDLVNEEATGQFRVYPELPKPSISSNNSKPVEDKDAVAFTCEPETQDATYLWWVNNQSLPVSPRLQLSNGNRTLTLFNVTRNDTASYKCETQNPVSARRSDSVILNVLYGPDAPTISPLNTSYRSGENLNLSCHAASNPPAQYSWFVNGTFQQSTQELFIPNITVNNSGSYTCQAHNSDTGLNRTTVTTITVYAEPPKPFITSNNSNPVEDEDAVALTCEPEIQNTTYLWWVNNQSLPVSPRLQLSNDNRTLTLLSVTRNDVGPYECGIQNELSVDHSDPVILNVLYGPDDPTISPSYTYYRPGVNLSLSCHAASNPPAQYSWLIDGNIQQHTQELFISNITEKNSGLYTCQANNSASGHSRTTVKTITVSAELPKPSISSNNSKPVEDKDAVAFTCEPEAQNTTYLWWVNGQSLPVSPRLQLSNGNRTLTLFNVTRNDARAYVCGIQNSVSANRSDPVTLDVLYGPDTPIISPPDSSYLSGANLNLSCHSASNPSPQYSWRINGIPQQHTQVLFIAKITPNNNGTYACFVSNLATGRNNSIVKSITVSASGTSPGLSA


Molecular target: T1, CEA on MKN45 cells
Test: FACS, MKN45 cells

Binder	EC50
N25 (antibody) heavy: not shown light: EIVLTQSPGTLSLSPGERATLSCRASQNINNRFLAWYQQRPGQAPRLLIYAASSRATGVPDRFSGSGSGTDFTLTISRLEAEDFAMYHCQQYGSFPRTFGQGTMVDIKGGGGSGGGGSSGAPRFLTRPKAFVVSVGKDATLSSQIVGNPTPQVSWEKDQQPVAAGARFRLAQDGDLYRLTILDLALGDSGQYVSRARNAIGEAFACVGLQVDAEA	0.62 nM
N27 (antibody) heavy: not shown light: EIVLTQSPGTLSLSPGERATLSCRASQNINNRFLAWYQQRPGQAPRLLIYAASSRATGVPDRFSGSGSGTDFTLTISRLEAEDFAMYHCQQYGSFPRTFGQGTMVDIKGGGGSGGGGSSGAPRFLTRPKAFVVSVGKDATLSSQIVGNPTPQVSWEKDQQPVAAGARFRLAQDGDLYRLTILDLALGDSGQYVSRARNAIGEAFACVGLQVDAEA	0.67 nM
N17 (antibody) heavy: not shown light: EIVLTQSPGTLSLSPGERATLSCRASQNINNRFLAWYQQRPGQAPRLLIYAASSRATGVPDRFSGSGSGTDFTLTISRLEAEDFAMYHCQQYGSFPRTFGQGTMVDIKDQPQFSGAPRFLTRPKAFVVSVGKDATLSSQIVGNPTPQVSWEKDQQPVAAGARFRLAQDGDLYRLTILDLALGDSGQYVSRARNAIGEAFACVGLQVDAEA	2.2 nM
N26 (antibody) heavy: not shown light: EIVLTQSPGTLSLSPGERATLSCRASQNINNRFLAWYQQRPGQAPRLLIYAASSRATGVPDRFSGSGSGTDFTLTISRLEAEDFAMYHCQQYGSFPRTFGQGTMVDIKGGGGSSGAPRFLTRPKAFVVSVGKDATLSSQIVGNPTPQVSWEKDQQPVAAGARFRLAQDGDLYRLTILDLALGDSGQYVSRARNAIGEAFACVGLQVDAEA	0.84 nM
N20 (antibody) heavy: not shown light: EIVLTQSPGTLSLSPGERATLSCRASQNINNRFLAWYQQRPGQAPRLLIYAASSRATGVPDRFSGSGSGTDFTLTISRLEAEDFAMYHCQQYGSFPRTFGQGTMVDIKDQPQFSGAPRFKTRPKAFVVSVGKDATLSSQIVGNPTPQVSWEKDQQPVAAGARFRLAQDGDLYRLKILDLALGDSGQYVSRARNAIGEAFACVGLQVDAEA	2.8 nM
N18 (antibody) heavy: not shown light: EIVLTQSPGTLSLSPGERATLSCRASQNINNRFLAWYQQRPGQAPRLLIYAASSRATGVPDRFSGSGSGTDFTLTISRLEAEDFAMYHCQQYGSFPRTFGQGTMVDIKDQPQFSGAPRFLTRPKAFVVSVGKDATLSSQIVGNPTPQVSWEKDQQPVAAGARFRLAQDGDLYRLTILDLALGDSGQYVSRARNAIGEAFACVGLQVDAEA	3.2 nM
N21 (antibody) heavy: not shown light: EIVLTQSPGTLSLSPGERATLSCRASQNINNRFLAWYQQRPGQAPRLLIYAASSRATGVPDRFSGSGSGTDFTLTISRLEAEDFAMYHCQQYGSFPRTFGQGTMVDIKDQPQFSGAPRFKTRPKAFVVSVGKDATLSSQIVGNPTPQVSWEKDQQPVAAGARFRLAQDGDLYRLHILDLALGDSGQYVSRARNAIGEAFACVGLQVDAEA	5.2 nM
N23 (antibody) heavy: not shown light: EIVLTQSPGTLSLSPGERATLSCRASQNINNRFLAWYQQRPGQAPRLLIYAASSRATGVPDRFSGSGSGTDFTLTISRLEAEDFAMYHCQQYGSFPRTFGQGTMVDIKDQPQFSGAPRFRTRPKAFVVSVGKDATLSSQIVGNPTPQVSWEKDQQPVAAGARFRLAQDGDLYRLHILDLALGDSGQYVSRARNAIGEAFACVGLQVDAEA	9.4 nM
N19 (antibody) heavy: not shown light: EIVLTQSPGTLSLSPGERATLSCRASQNINNRFLAWYQQRPGQAPRLLIYAASSRATGVPDRFSGSGSGTDFTLTISRLEAEDFAMYHCQQYGSFPRTFGQGTMVDIKDQPQFSGAPRFKTRPKAFVVSVGKDATLSSQIVGNPTPQVSWEKDQQPVAAGARFRLAQDGDLYRLKILDLALGDSGQYVSRARNAIGEAFACVGLQVDAEA	4.3 nM
N24 (antibody) heavy: not shown light: EIVLTQSPGTLSLSPGERATLSCRASQNINNRFLAWYQQRPGQAPRLLIYAASSRATGVPDRFSGSGSGTDFTLTISRLEAEDFAMYHCQQYGSFPRTFGQGTMVDIKDQPQFSGAPRFRTRPKAFVVSVGKDATLSSQIVGNPTPQVSWEKDQQPVAAGARFRLAQDGDLYRLHILDLALGDSGQYVSRARNAIGEAFACVGLQVDAEA	6.7 nM
N22 (antibody) heavy: not shown light: EIVLTQSPGTLSLSPGERATLSCRASQNINNRFLAWYQQRPGQAPRLLIYAASSRATGVPDRFSGSGSGTDFTLTISRLEAEDFAMYHCQQYGSFPRTFGQGTMVDIKDQPQFSGAPRFRTRPKAFVVSVGKDATLSSQIVGNPTPQVSWEKDQQPVAAGARFRLAQDGDLYRLKILDLALGDSGQYVSRARNAIGEAFACVGLQVDAEA	4.5 nM
N14 (antibody) heavy: not shown light: EIVLTQSPGTLSLSPGERATLSCRASQNINNRFLAWYQQRPGQAPRLLIYAASSRATGVPDRFSGSGSGTDFTLTISRLEAEDFAMYHCQQYGSFPRTFGQGTMVDIKSGAPRFLTRPLAFVVSVGKDATLSSQIVGNPTPQVSWEKDQQPVAAGARFRLAQDGDLYRLKILDLALGDSGQYVSRARNAIGEAFACVGLQVDAEA	1.9 nM
N16 (antibody) heavy: not shown light: EIVLTQSPGTLSLSPGERATLSCRASQNINNRFLAWYQQRPGQAPRLLIYAASSRATGVPDRFSGSGSGTDFTLTISRLEAEDFAMYHCQQYGSFPRTFGQGTMVDIKSGAPRFLTRPLAFVVSVGKDATLSSQIVGNPTPQVSWEKDQQPVAAGARFRLAQDGDLYRLHILDLALGDSGQYVSRARNAIGEAFACVGLQVDAEA	3.4 nM
N10 (antibody) heavy: not shown light: EIVLTQSPGTLSLSPGERATLSCRASQNINNRFLAWYQQRPGQAPRLLIYAASSRATGVPDRFSGSGSGTDFTLTISRLEAEDFAMYHCQQYGSFPRTFGQGTMVDIKSGAPRFLTRPKAFVVSVGKDATLSSQIVGNPTPQVSWEKDQQPVAAGARFRLAQDGDLYRLTILDLALGDSGQYVSRARNAIGEAFACVGLQVDAEA	3 nM
N15 (antibody) heavy: not shown light: EIVLTQSPGTLSLSPGERATLSCRASQNINNRFLAWYQQRPGQAPRLLIYAASSRATGVPDRFSGSGSGTDFTLTISRLEAEDFAMYHCQQYGSFPRTFGQGTMVDIKSGAPRFLTRPLAFVVSVGKDATLSSQIVGNPTPQVSWEKDQQPVAAGARFRLAQDGDLYRLKILDLALGDSGQYVSRARNAIGEAFACVGLQVDAEA	2.6 nM
N13 (antibody) heavy: not shown light: EIVLTQSPGTLSLSPGERATLSCRASQNINNRFLAWYQQRPGQAPRLLIYAASSRATGVPDRFSGSGSGTDFTLTISRLEAEDFAMYHCQQYGSFPRTFGQGTMVDIKSGAPRFKTRPKAFVVSVGKDATLSSQIVGNPTPQVSWEKDQQPVAAGARFRLAQDGDLYRLHILDLALGDSGQYVSRARNAIGEAFACVGLQVDAEA	2.9 nM

Molecular target: T2, hPDL1 antigen (human, UniProt Q9NZQ7 19-239, limits assumed)
T2 construct: bought
T2 sequence (Q9NZQ7 19-239 limits assumed): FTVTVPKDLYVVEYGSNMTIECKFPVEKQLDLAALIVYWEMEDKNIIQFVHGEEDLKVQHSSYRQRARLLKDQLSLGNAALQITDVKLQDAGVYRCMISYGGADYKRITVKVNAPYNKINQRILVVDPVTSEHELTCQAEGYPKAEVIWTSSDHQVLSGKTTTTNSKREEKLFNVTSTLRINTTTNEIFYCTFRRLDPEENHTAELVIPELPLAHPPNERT
Test: ELISA
Description: For an antibody targeting a soluble protein, the binding activity of the antibody against the soluble protein was detected by ELISA. […] After the blocking was completed, the blocking solution was discarded; and the plate was washed 3 times with a PBST buffer (pH 7.4, PBS containing 0.1% tween-20). 100 μL of the antibody solution diluted in a gradient was added to each well, and the mixture was incubated at 37° C. for 1 h. After the incubation was completed, the plate was washed 3 times with PBST. […] The plate was washed 3 times with PBST. […] The reaction was stopped by adding 50 μL of 1 M H₂SO₄ to each well. The absorbance values at 450 nm were read on a microplate reader, the binding curves of the antibodies to an antigen were fitted with software, and the EC₅₀ values were calculated.

Binder	EC50
PL-1 (bispecific antibody, human IgG1, kappa, L234A L235A) heavy 1: not shown light 1: DIVLTQSPASLAVSPGQRATITCRASESVSIHGTHLMHWYQQKPGQPPKLLIYAASKLESGVPARFSGSGSGTDFTLTINPVEAEDTANYYCQQSFEDPLTFGQGTKLEIKGGGGSGIPPKIECLPIDISIDEGKVLTVASAFTGEPTPEVTWSTGGRKIHSQEQGRFHIENTDDLTTLIIKDVQKQDGGLYTLTLRNEFGSDSATVNIHIRSI heavy 2: not shown light 2: not shown	1.6 nM
PL-2 (bispecific antibody, human IgG1, kappa, L234A L235A) heavy 1: not shown light 1: DIVLTQSPASLAVSPGQRATITCRASESVSIHGTHLMHWYQQKPGQPPKLLIYAASKLESGVPARFSGSGSGTDFTLTINPVEAEDTANYYCQQSFEDPLTFGQGTKLEIKGGGGSGIPPKIECLPIDISIDEGKVLTVASAFTGEPTPEVTWSTGGRKIHSQEQGRFHIENTDDSTTLTIKDVQKQDGGLYTLTLRNEFGSDSATVNIHIRSI heavy 2: not shown light 2: not shown	0.5 nM
PL-4 (bispecific antibody, human IgG1, kappa, L234A L235A) heavy 1: not shown light 1: DIVLTQSPASLAVSPGQRATITCRASESVSIHGTHLMHWYQQKPGQPPKLLIYAASKLESGVPARFSGSGSGTDFTLTINPVEAEDTANYYCQQSFEDPLTFGQGTKLEIKGGGGSGIPPKIECLPIDISIDEGKVLTVASCFTGEPTPEVTWSTGGRKIHSQEQGRFHIENTDDSTTLTIKDVQKQDGGLYTLTLRNEFGSDSATVNIHIRSI heavy 2: not shown light 2: not shown	0.7 nM
PL-5 (bispecific antibody, human IgG1, kappa, L234A L235A) heavy 1: not shown light 1: DIVLTQSPASLAVSPGQRATITCRASESVSIHGTHLMHWYQQKPGQPPKLLIYAASKLESGVPARFSGSGSGTDFTLTINPVEAEDTANYYCQQSFEDPLTFGQGTKLEIKGGGGSGIPPKIECLPIDISIDEGKVLTVASAFTGEPTPEVTWSTGGRKIHSQEQGRFHIENTDDSTTLTIKDVQKQDGGLYTLTLRNEFGSDSATVNIHIRSI heavy 2: not shown light 2: not shown	0.7 nM
PL-3 (bispecific antibody, human IgG1, kappa, L234A L235A) heavy 1: not shown light 1: DIVLTQSPASLAVSPGQRATITCRASESVSIHGTHLMHWYQQKPGQPPKLLIYAASKLESGVPARFSGSGSGTDFTLTINPVEAEDTANYYCQQSFEDPLTFGQGTKLEIKGGGGSGIPPKIECLPIDISIDEGKCLTVASAFTGEPTPEVTWSTGGRKIHSQEQGRFHIENTDDSTTLTIKDVQKQDGGLYTLTLRNEFGSDSATVNIHIRSI heavy 2: not shown light 2: not shown	0.6 nM
